Measurements reported in the supplement of paper PMC11136658.

Tested on: peptide library, one residue held at a place counted from the Y acceptor
Assay: relative phosphorylation of the sub-library (ratio to the mean residue at this position); higher = residue favoured
Outline: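 Purified recombinant kinases were given 50 μM ATP with γ-32P-ATP and biotinylated Tyr-centred peptide library mixtures for 90 min in 384-well plates. Peptides bound to streptavidin membranes were rinsed and quantified by phosphorimaging, and intensities were normalized per position by the sum of the 18 randomized residues (16 with the Ser/Thr-free library) and multiplied by that number. The reported values are phosphorylation relative to the mean randomized residue.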

Chain of PDHK4, construct: Full length, human (Q16654 whole entry, looked up): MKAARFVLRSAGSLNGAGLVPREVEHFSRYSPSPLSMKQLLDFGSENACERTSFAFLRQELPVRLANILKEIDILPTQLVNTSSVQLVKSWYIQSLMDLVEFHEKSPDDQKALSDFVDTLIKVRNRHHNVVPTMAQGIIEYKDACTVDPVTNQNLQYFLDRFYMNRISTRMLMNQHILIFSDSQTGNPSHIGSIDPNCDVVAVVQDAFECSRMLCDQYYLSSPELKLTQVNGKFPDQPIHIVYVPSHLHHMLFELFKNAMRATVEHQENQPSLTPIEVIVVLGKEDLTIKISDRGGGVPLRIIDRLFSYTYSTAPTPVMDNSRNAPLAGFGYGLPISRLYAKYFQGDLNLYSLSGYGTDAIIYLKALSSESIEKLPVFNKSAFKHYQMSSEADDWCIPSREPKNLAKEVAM

PDHK4, construct: Full length, human (from UniProt Q16654)
relative phosphorylation
Details | at +1 | at +2 | at +3 | at +4 | at +5 | at -1 | at -2 | at -3 | at -4 | at -5
A fixed | 0.747 | 0.56 | 0.742 | 0.698 | 0.589 | 0.81 | 0.808 | 0.801 | 0.946 | 0.872
D fixed | 1.19 | 1.6 | 1.29 | 1.41 | 1.34 | 1.15 | 1.15 | 1.25 | 1.27 | 1.31
E fixed | 1.04 | 1.2 | 1.49 | 1.26 | 1.33 | 1.02 | 1.11 | 0.838 | 1.11 | 1.17
F fixed | 0.751 | 0.966 | 0.945 | 0.996 | 1.01 | 0.723 | 0.874 | 0.873 | 0.94 | 0.934
G fixed | 1.01 | 0.938 | 1.02 | 0.95 | 1.05 | 1.17 | 1.24 | 1.26 | 1.19 | 1.1
H fixed | 0.998 | 1.01 | 0.995 | 1.11 | 1.03 | 1.05 | 0.911 | 0.777 | 0.983 | 1.11
I fixed | 0.568 | 0.546 | 0.652 | 0.669 | 0.722 | 0.654 | 0.654 | 0.568 | 0.739 | 0.773
K fixed | 1.04 | 0.95 | 0.777 | 0.863 | 0.777 | 1.14 | 0.926 | 1.25 | 0.945 | 1.02
L fixed | 0.798 | 0.809 | 0.798 | 1.1 | 1.03 | 0.823 | 1.1 | 0.99 | 0.827 | 0.827
M fixed | 0.695 | 0.776 | 0.891 | 0.92 | 0.968 | 0.75 | 0.796 | 0.712 | 0.822 | 0.809
N fixed | 1.49 | 1.3 | 1.16 | 1.15 | 1.06 | 1.34 | 1.21 | 1.14 | 1.01 | 1.07
P fixed | 1.15 | 1.1 | 1.09 | 1.06 | 0.957 | 1.27 | 1.22 | 1.74 | 1.1 | 1.11
Q fixed | 1.39 | 1.42 | 1.19 | 1.26 | 1.21 | 1.32 | 1.11 | 1.24 | 1.02 | 1.03
R fixed | 1.17 | 0.976 | 0.885 | 0.812 | 0.798 | 1.11 | 1.09 | 0.868 | 1.06 | 0.994
V fixed | 0.572 | 0.565 | 0.604 | 0.644 | 0.703 | 0.539 | 0.652 | 0.645 | 0.669 | 0.681
W fixed | 1.39 | 1.28 | 1.47 | 1.1 | 1.44 | 1.13 | 1.15 | 1.05 | 1.37 | 1.18
pThr fixed | 1.31 | 1.69 | 1.35 | 1.51 | 1.1 | 1.43 | 1.19 | 1.42 | 1.32 | 1.43
pTyr fixed | 1.1 | 1.18 | 0.974 | 1.03 | 1.43 | 1.09 | 1.09 | 0.858 | 1.18 | 1.28

PINK1, construct: Full length, Tribolium castaneum (from UniProt D6WMX4)
relative phosphorylation
Details | at +1 | at +2 | at +3 | at +4 | at +5 | at -1 | at -2 | at -3 | at -4 | at -5
A fixed | 0.901 | 0.835 | 0.881 | 0.879 | 0.893 | 0.907 | 0.869 | 0.893 | 0.948 | 0.916
D fixed | 0.823 | 0.834 | 0.831 | 0.914 | 0.84 | 0.931 | 0.892 | 0.906 | 1.05 | 1.09
E fixed | 0.789 | 0.792 | 0.875 | 0.938 | 0.813 | 1.22 | 0.916 | 0.938 | 1.42 | 1.04
F fixed | 1.43 | 1.12 | 1.08 | 1.07 | 1.05 | 1.17 | 1.11 | 0.986 | 1.1 | 0.984
G fixed | 0.902 | 0.767 | 0.78 | 0.909 | 0.88 | 1.15 | 0.931 | 0.838 | 0.884 | 0.936
H fixed | 1.23 | 1.15 | 1.07 | 1.1 | 1.07 | 0.97 | 1.05 | 1.08 | 1.01 | 1.09
I fixed | 0.847 | 0.804 | 0.852 | 0.84 | 0.832 | 1 | 0.922 | 0.781 | 0.868 | 0.888
K fixed | 0.937 | 1.59 | 1.31 | 1.32 | 1.31 | 1 | 1.13 | 1.2 | 1.03 | 1.18
L fixed | 0.737 | 0.831 | 0.881 | 0.882 | 0.876 | 0.814 | 0.889 | 0.862 | 0.793 | 0.82
M fixed | 0.762 | 1.01 | 0.959 | 0.869 | 0.891 | 0.819 | 0.824 | 0.849 | 0.798 | 0.85
N fixed | 0.936 | 1 | 0.91 | 0.954 | 1.02 | 0.948 | 1.21 | 0.981 | 0.871 | 0.893
P fixed | 0.778 | 0.786 | 0.909 | 0.885 | 0.876 | 0.911 | 0.843 | 0.851 | 0.828 | 0.911
Q fixed | 0.862 | 0.989 | 0.973 | 0.99 | 1.02 | 0.998 | 0.996 | 1.09 | 0.934 | 0.887
R fixed | 1.16 | 1.71 | 1.61 | 1.57 | 1.68 | 1.3 | 1.36 | 1.82 | 1.35 | 1.35
V fixed | 0.784 | 0.805 | 0.857 | 0.797 | 0.816 | 0.853 | 0.911 | 0.819 | 0.817 | 0.874
W fixed | 2.12 | 0.972 | 1.23 | 1.09 | 1.15 | 1 | 1.14 | 1.11 | 1.31 | 1.29
pThr fixed | 0.939 | 0.843 | 0.735 | 0.99 | 0.826 | 1.29 | 0.841 | 1.06 | 1.04 | 1.06
pTyr fixed | 1.3 | 0.83 | 0.872 | 1.26 | 0.978 | 1.25 | 0.995 | 1.2 | 1.16 | 1.11
